Data reported in patent US20020137126A1 (Genentech, published 2002).

Tests used:
[1] = target: T1, REK7, endogenous, on rat embryonic (E16) cortical neurons (rat, UniProt P54757 27-1005 at identity 0.97)); test: cell-based or functional assay
T1 chain: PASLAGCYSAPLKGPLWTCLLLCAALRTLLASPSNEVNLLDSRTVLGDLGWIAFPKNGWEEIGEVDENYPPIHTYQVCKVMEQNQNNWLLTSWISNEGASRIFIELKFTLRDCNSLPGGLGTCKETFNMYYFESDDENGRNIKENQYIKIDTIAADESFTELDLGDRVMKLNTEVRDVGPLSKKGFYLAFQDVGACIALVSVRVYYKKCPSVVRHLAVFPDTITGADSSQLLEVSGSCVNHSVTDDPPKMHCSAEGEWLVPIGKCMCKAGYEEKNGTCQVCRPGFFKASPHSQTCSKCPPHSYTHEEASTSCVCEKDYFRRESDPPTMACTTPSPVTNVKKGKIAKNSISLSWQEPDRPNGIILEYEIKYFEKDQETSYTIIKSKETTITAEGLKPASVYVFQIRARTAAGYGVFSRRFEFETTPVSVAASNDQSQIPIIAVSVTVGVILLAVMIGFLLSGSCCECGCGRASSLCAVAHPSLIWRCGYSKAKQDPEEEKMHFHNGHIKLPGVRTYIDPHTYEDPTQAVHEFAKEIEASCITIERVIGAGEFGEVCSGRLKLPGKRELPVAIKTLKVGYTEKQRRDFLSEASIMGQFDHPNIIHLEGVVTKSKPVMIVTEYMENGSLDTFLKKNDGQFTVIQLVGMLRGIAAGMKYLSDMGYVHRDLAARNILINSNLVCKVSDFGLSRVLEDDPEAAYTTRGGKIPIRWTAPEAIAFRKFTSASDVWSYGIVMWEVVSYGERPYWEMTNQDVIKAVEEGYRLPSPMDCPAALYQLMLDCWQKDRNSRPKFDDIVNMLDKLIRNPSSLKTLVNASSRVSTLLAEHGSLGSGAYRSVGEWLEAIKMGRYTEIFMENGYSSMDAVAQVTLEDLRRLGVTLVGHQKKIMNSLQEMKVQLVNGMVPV

CD4-IgG = CD4-IgG (human, UniProt P01730 26-205); test: immunoaffinity chromatography of BT20 conditioned medium on CD4-IgG-Protein A precolumn; SDS-PAGE, silver stain
Experimental: 200 ml of BT20 conditioned media, concentrated as described above from 12 liters and frozen, was thawed, centrifuged at 17,000 rpm in a Sorvall SS34 rotor, and filtered through a 0.45 μm filter to clarify the solution. The 200 ml was pumped through a 2.0 ml CD4-IgG—Protein A (CD4-IgG covalently linked to Protein A through IgG moiety) immunoaffinity precolumn and a 1.0 ml REK7-IgG - Protein A (REK7-IgG covalently linked to Protein A through IgG moiety) immunoaffinity column in tandem with a flow rate of 0.5 ml/min. All chromatography was carried out at 4° C. Following one complete passage of the media through both columns, the flow rate was reduced to 0.2 ml/min, and the media was recycled through both columns. Following the loading of the REK7-IgG column, the two column were separated from each other, washed with 10 column volumes of PBS, and then eluted with four separate washes of 100 mM sodium citrate, pH 3.0 (2 ml each for the CD4-IgG column and 1 ml each for the REK7-IgG column). The first two washes were allowed to immediately flow through the column whereas the last two were incubated for 15 minutes before collection. The eluates were brought to pH 7.4 by the addition of 50 mM potassium phosphate, and an aliquot of each was analyzed by sodium dodecycl sulfate (SDS)-polyacrylamide gel electrophoresis (PAGE). […]

B1: soluble AL-1 (purified, secreted form without the GPI membrane anchor) (ligand)
chain: QDPGSKAVADRYAVYWNSSNPRFQRGDYHIDVCINDYLDVFCPHYEDSVPEDKTERYVLYMVNFDGYSACDHTSKGFKRWECNRPHSPNGPLKFSEKFQLFTPFSLGFEFRPGREYFYISSAIPDNGRRSCLKLKVFVRPTNSCMKTIGVHDRVFDVNDKVENSLEPADDTVHESAEPSRGEN
notes: also called purified soluble AL-1; REK7 ligand from BT20 conditioned medium
Which “tyrosine autophosphorylation of REK7 (immunoprecipitation with anti-REK7, anti-phosphotyrosine immunoblot)” value [1] does the source give for B1 here?
The value was ~2 fold.

Does B1 bind (CD4-IgG)?
Result: no binding
